Results published in paper PMC9128377.
Where two headings read alike, the source gives them in different places.

What was measured:
Test in all cases: fluorescence anisotropy
[1] = target: T1, U2AF2 12L (RRM1-RRM2) (UniProt P26368 141-342)
[2] = target: T2, U2AF2 12L G297D (UniProt P26368 141-342, G297D)
[3] = target: U2AF2 12L R227N (UniProt P26368 141-342, R227N)
[4] = target: U2AF2 12L K225N (UniProt P26368 141-342, K225N)
[5] = target: T1, U2AF2 12L (RRM1-RRM2); remark: listed apart in the source
[6] = target: T2, U2AF2 12L G297D; remark: listed apart in the source
[7] = target: T1, U2AF2 12L (RRM1-RRM2); remark: listed apart in the source

T1 sequence (P26368 141-342): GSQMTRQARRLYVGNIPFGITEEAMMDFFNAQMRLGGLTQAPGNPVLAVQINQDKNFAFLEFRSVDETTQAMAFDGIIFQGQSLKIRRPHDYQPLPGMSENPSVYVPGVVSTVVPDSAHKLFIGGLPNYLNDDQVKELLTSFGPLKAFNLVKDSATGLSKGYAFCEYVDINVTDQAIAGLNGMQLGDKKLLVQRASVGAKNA
T2 sequence (P26368 141-342 G297D): as the sequence (P26368 141-342) above, with G157D counted along it
Sequence of U2AF2 12L R227N (P26368 141-342 R227N): as the sequence (P26368 141-342) above, with R87N counted along it
Sequence of U2AF2 12L K225N (P26368 141-342 K225N): as the sequence (P26368 141-342) above, with K85N counted along it

Row | Binder | binding signal [2] [fold penalty] | binding signal [3] [fold penalty] | binding signal [4] [fold penalty] | binding signal [5] [fold Kd increase vs N5] | also measured
1 | UUUUGUUUU (ssRNA) [U9 G5] | ~2 | > 5 | > 5 | – | binding signal [1]: < 2 fold Kd increase vs N5
2 | UUUUUGUUU (ssRNA) [U9 G6] | – | – | – | ~3 | –
3 | UUUUCUUUU (ssRNA) [U9 C5] | – | – | – | – | binding signal [6]: ~2 fold penalty; binding result [7]: binds
4 | UUUGUUUUU (ssRNA) [U9 G4] | – | – | – | ~3 | –
5 | UUUUAUUUU (ssRNA) [U9 A5] | ~2 | > 5 | > 5 | – | –
